Reference: PMC12365351

Columns and labels:
[1] = molecular target: rNcSAG1* (recombinant Neospora caninum SAG1, residues 31-317, Strep-tag removed by enterokinase) (Neospora caninum); test: SEC; preparative SEC of the proteins after removal of the Strep-tag with enterokinase, 0.1 M Tris-Cl pH 8.0, 0.15 M NaCl, 1 mM EDTA; unique peak slightly shifted towards smaller size; self-association (dimer)
[2] = molecular target: rNcSAG1-ST (recombinant Neospora caninum SAG1, residues 31-317, with C-terminal Twin-Strep-tag) (Neospora caninum); test: SEC; analytical SEC of the re-injected main peak, Superdex 200 Increase 10/300 GL, 0.1 M Tris-Cl pH 8.0, 0.15 M NaCl, 1 mM EDTA, 0.5 ml/min; MW estimated from calibration with LMW and HMW kits; self-association (dimer)
[3] = molecular target: rNcSRS2* (recombinant Neospora caninum SRS2, residues 54-401, Strep-tag removed by enterokinase) (Neospora caninum); test: SEC; preparative SEC of the proteins after removal of the Strep-tag with enterokinase, 0.1 M Tris-Cl pH 8.0, 0.15 M NaCl, 1 mM EDTA; unique peak slightly shifted towards smaller size; self-association (dimer)
[4] = molecular target: rNcSRS2-ST (recombinant Neospora caninum SRS2, residues 54-401, with C-terminal Twin-Strep-tag) (Neospora caninum); test: SEC; analytical SEC of the re-injected main peak, Superdex 200 Increase 10/300 GL, 0.1 M Tris-Cl pH 8.0, 0.15 M NaCl, 1 mM EDTA, 0.5 ml/min; MW estimated from calibration with LMW and HMW kits; self-association (dimer)

Substance: rNcSAG1* (recombinant Neospora caninum SAG1, residues 31-317, Strep-tag removed by enterokinase) (domain or fragment)
- stoichiometry N [1]: 2

Substance: rNcSAG1-ST (recombinant Neospora caninum SAG1, residues 31-317, with C-terminal Twin-Strep-tag) (domain or fragment)
- stoichiometry N [2]: 2

Substance: rNcSRS2* (recombinant Neospora caninum SRS2, residues 54-401, Strep-tag removed by enterokinase) (domain or fragment)
- stoichiometry N [3]: 2

Substance: rNcSRS2-ST (recombinant Neospora caninum SRS2, residues 54-401, with C-terminal Twin-Strep-tag) (domain or fragment)
- stoichiometry N [4]: 2
